Reference: the supplement of paper PMC7877785
± gives the uncertainty stated by the source.

Test: self-splicing fitness, log relative to wild type (ln ratio); higher = more splicing; Tetrahymena group I intron in knt gene, E. coli kanamycin selection, DiMSum; sequences stand for … in CUCUCU…GGAGGGAAAAGUUAUCAGGCAUGCACCUGGUAGCUAGUCUUUAAACCAAUAGAUUGCAUCGGUUUAAAAGGCAAGACCGUCAAAUUGCGGGAAAGGGGUCAACAGCCGUUCAGUACCAAGUCUCAGGGGAAACUUUGAGAUGGCCUUGCAAAGGGUAUGGUAAUAAGCUGACGGACAUGGUCCUAACCACGCAGCCAAGUCCUAAGUCAACAGAUCUUCUGUUGAUAUGGAUGCAGUUCACAGACUAAAUGUCGGUCGGGGAAGAUGUAUUCUUCUCAUAAGAUAUAGUCGGACCUCUCCUUAAUGGGAGCUAGCGGAUGAAGUGAUGCAACACUGGAGCCGCUGGGAACUAAUUUGUAUGCGAAAGUAUAUUGAUUAGUUUUGGAGUACUCGUGGUCG
Procedure, shortened: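 Library with all eight P1ex-region intron nucleotides randomised, intron inside the knt kanamycin-resistance gene on pET-22b(+), in E. coli BL21(DE3). Cells grew overnight at 37°C or 30°C on LB agar with or without 25 μg/mL kanamycin (plus 100 μg/mL carbenicillin, 50 μM IPTG, 0.2% rhamnose), in six replicate transformations. Pooled colonies were amplicon-sequenced on Illumina HiSeq 2500. DiMSum fitness is the error-weighted combination of wild-type-normalised replicate fold changes, kanamycin versus none.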

Sequence	self-splicing fitness (ln) (30 °C)	self-splicing fitness (ln) (37 °C)
GCCGAGCAAUAUUACGAUAA	-2.07 ± 0.21	-2.08 ± 0.26
UCUUAGCAAUAUUACGGAUU	-2.71 ± 0.41	-2.22 ± 0.21
UUGUAGCAAUAUUACGUUAG	-2.36 ± 0.25	-1.28 ± 0.21
UAUAAGCAAUAUUACGUGGG	-2.83 ± 0.14	-2.05 ± 0.12
UAUUAGCAAUAUUACGUGUA	-1.21 ± 0.16	-0.828 ± 0.16
CCUCAGCAAUAUUACGGGGA	-3.03 ± 0.14	-2.1 ± 0.15
CUAUAGCAAUAUUACGAACC	-2.11 ± 0.49	–
ACAAAGCAAUAUUACGUAUU	-1.94 ± 0.086	-1.18 ± 0.11
ACGAAGCAAUAUUACGUUAU	-3.54 ± 0.13	-1.1 ± 0.1
UUUCAGCAAUAUUACGAGUC	-3.12 ± 0.29	-1.97 ± 0.37
CGGCAGCAAUAUUACGUGGA	-2.73 ± 0.26	-1.72 ± 0.27
UGGUAGCAAUAUUACGACUC	-0.656 ± 0.23	-0.807 ± 0.35
GUUUAGCAAUAUUACGGACA	-1.68 ± 0.25	-1.44 ± 0.25
GAUCAGCAAUAUUACGCGUA	-0.39 ± 0.095	-0.283 ± 0.14
UAUUAGCAAUAUUACGAGGG	-3.12 ± 0.3	-2.13 ± 0.3
UCCGAGCAAUAUUACGAUGG	-0.964 ± 0.097	-0.212 ± 0.12
AAGGAGCAAUAUUACGAUAC	-3.49 ± 0.39	-3.25 ± 0.37
CCUGAGCAAUAUUACGUCCG	-3.25 ± 0.24	-1.93 ± 0.33
CGACAGCAAUAUUACGCCGG	-0.394 ± 0.059	-0.272 ± 0.067
AACUAGCAAUAUUACGUCGC	-2.63 ± 0.11	-1.08 ± 0.14
GUGCAGCAAUAUUACGUUGG	-2.58 ± 0.084	-1.56 ± 0.097
ACUAAGCAAUAUUACGGUUA	-2.02 ± 0.1	-1.06 ± 0.086
CUCGAGCAAUAUUACGAAAU	-3.36 ± 0.42	-2.38 ± 0.27
AGGUAGCAAUAUUACGUCUG	-0.641 ± 0.013	-0.161 ± 0.033
GCUCAGCAAUAUUACGAGAC	-3.42 ± 0.32	-0.338 ± 0.2
UACUAGCAAUAUUACGCUCU	-0.792 ± 0.085	-0.262 ± 0.1

Sequence	self-splicing fitness (ln) (30 °C)	self-splicing fitness (ln) (37 °C)
GUGUAGCAAUAUUACGUUAG	-2.45 ± 0.25	-1.56 ± 0.22
UUCAAGCAAUAUUACGAAAC	-2.77 ± 0.31	-2.89 ± 0.35
AUUAAGCAAUAUUACGCAAG	-1.32 ± 0.14	-1.27 ± 0.16
UGCCAGCAAUAUUACGAGUA	-1.49 ± 0.1	0.112 ± 0.11
CAGUAGCAAUAUUACGAAAA	-3.58 ± 0.47	-1.8 ± 0.32
CUCGAGCAAUAUUACGAGCC	–	-1.68 ± 0.2
AGGGAGCAAUAUUACGUCAU	-3.06 ± 0.28	-2.74 ± 0.31
UCUAAGCAAUAUUACGACGA	-0.414 ± 0.2	0.116 ± 0.17
CUCGAGCAAUAUUACGACGA	-2.5 ± 0.24	-1.26 ± 0.29
UGGCAGCAAUAUUACGUUGG	-2.33 ± 0.11	-0.227 ± 0.13
CGAUAGCAAUAUUACGGGAG	-2.86 ± 0.24	-2.39 ± 0.24
AAGGAGCAAUAUUACGCGAA	-1.94 ± 0.22	-1.39 ± 0.23
CGCGAGCAAUAUUACGGGCU	-3.12 ± 0.21	-1.17 ± 0.24
CCUUAGCAAUAUUACGUUUA	-3.23 ± 0.26	-2.21 ± 0.2
CUGGAGCAAUAUUACGUUCG	-4.29 ± 0.3	-1.77 ± 0.19
GGGUAGCAAUAUUACGGAUU	-0.431 ± 0.19	-0.333 ± 0.23
UUGCAGCAAUAUUACGGAAG	-3.02 ± 0.34	-0.414 ± 0.14
CCACAGCAAUAUUACGGAAG	-1.87 ± 0.098	-0.76 ± 0.1
CUUUAGCAAUAUUACGCUAA	-4.31 ± 0.46	-3.2 ± 0.47
AUCUAGCAAUAUUACGCCAG	-2.77 ± 0.26	-2.17 ± 0.25
AUGGAGCAAUAUUACGAGCU	-3.12 ± 0.27	-2.17 ± 0.37
UUCCAGCAAUAUUACGUCGU	-4.1 ± 0.19	-1.85 ± 0.12
GAGAAGCAAUAUUACGGACG	-0.812 ± 0.12	-0.528 ± 0.2
CGGCAGCAAUAUUACGCAAU	-3.47 ± 0.2	-1.77 ± 0.19
UAAAAGCAAUAUUACGGAUA	-1.35 ± 0.12	0.0185 ± 0.12
AUUAAGCAAUAUUACGAGCC	–	-1.69 ± 0.28

Sequence	self-splicing fitness (ln) (30 °C)	self-splicing fitness (ln) (37 °C)
AUGAAGCAAUAUUACGUUCA	0.00482 ± 0.072	0.318 ± 0.1
UAUGAGCAAUAUUACGUAAU	-2.35 ± 0.17	-2.34 ± 0.35
CUCGAGCAAUAUUACGCGCG	-2.81 ± 0.27	-1.48 ± 0.32
AUCAAGCAAUAUUACGACAU	0.105 ± 0.011	0.377 ± 0.032
GAUCAGCAAUAUUACGGUCG	-1.42 ± 0.092	-0.484 ± 0.088
UGCAAGCAAUAUUACGUGCC	-0.791 ± 0.092	-1.12 ± 0.12
UAAUAGCAAUAUUACGUGCA	-1.36 ± 0.11	-1.34 ± 0.099
CAUUAGCAAUAUUACGGCGU	-2.25 ± 0.13	-0.905 ± 0.13
CCGUAGCAAUAUUACGACAU	-3.773 ± 0.027	-2.94 ± 0.042
CCGAAGCAAUAUUACGUCAU	-4.87 ± 0.42	-3.03 ± 0.33
CCAUAGCAAUAUUACGUUGA	-3.57 ± 0.26	-2.31 ± 0.15
CAGCAGCAAUAUUACGGUUU	-0.8 ± 0.062	-0.225 ± 0.084
AUCGAGCAAUAUUACGUGGU	-3.23 ± 0.15	-2.72 ± 0.14
GCAAAGCAAUAUUACGCGCC	-2.2 ± 0.26	-2.09 ± 0.36
UCUAAGCAAUAUUACGACCA	-1.73 ± 0.24	-0.242 ± 0.19
UUUAAGCAAUAUUACGGCAG	-0.39 ± 0.098	0.179 ± 0.15
GGUCAGCAAUAUUACGACUU	-0.64 ± 0.081	-1.09 ± 0.087
GUGCAGCAAUAUUACGACAA	-0.582 ± 0.066	-0.153 ± 0.07
UGAGAGCAAUAUUACGAACG	-1.02 ± 0.18	-1.43 ± 0.33
CGUAAGCAAUAUUACGGCAG	-0.537 ± 0.091	-0.781 ± 0.095
GAUUAGCAAUAUUACGAAAG	-2.38 ± 0.25	-0.574 ± 0.23
GGUAAGCAAUAUUACGAGCA	-0.801 ± 0.093	-0.377 ± 0.12
UAGCAGCAAUAUUACGACCA	-0.457 ± 0.12	0.838 ± 0.17
UCCUAGCAAUAUUACGAAGA	-1.13 ± 0.12	0.123 ± 0.12
ACUAAGCAAUAUUACGCGCC	0.0442 ± 0.11	-0.687 ± 0.14
